Results from paper PMC2996723 (Journal of molecular biology, 2009).
Values joined by “and” are separate entries in the source; they are usually repeats but may differ in a detail not shown here. Equal values may be shown once.

Columns and labels:
[1] = target: HIV CA protein (p24) (human immunodeficiency virus (HIV)); experiment: co-sedimentation
SEC-MALS = target: the molecule itself; experiment: SEC-MALS

## HIV CA protein (p24) (natural protein)
[1]
  critical concentration: 10 µM

B1: Rous sarcoma virus (RSV) CA protein, wild type (natural protein)
chain: PVVIKTEGPAWTPLEPKLITRLADTVRTKGLRSPITMAEVEALMSSPLLPHDVTNLMRVILGPAPYALWMDAWGVQLQTVIAAATRDPRHPANGQGRGERTNLNRLKGLADGMVGNPQGQAALLRPGELVAITASALQAFREVARLAEPAGPWADIMQGPSESFVDFANRLIKAVEGSDLPPSARAPVIIDCFRQKSQPDIQQLIRTAPSTLTTPGEIIKYVLDRQKTAPLTDQGIA
SEC-MALS
  stoichiometry N: 2 and 3 and 4
